Changes are numbered by the printed parent chain.
B1: CD22-specific binder (scFv18) 16P15 (scFv)
scFv: QVQLQQSGPGLVKPSQTLSLTCAISGDSVSSNSAAWNWIRQSPSRGLEWLGRTYYRSKWYNDYAVSVKSRITINPDTSKNQFSLQLNSVTPEDTAVYYCAQEVEPHDALDIWGQGTMVTVSSGGGGSGGGGSGGGGSDIQMTQSPSSVSASVGDKVTITCRASQDVSGWLAWYQQKPGLAPQLLIFGASTLQGEVPSRFSGSGSGTDFTLTISSLQPEDFATYYCQQAKYFPYTFGQGTKLEIK
B2: CD22-specific binder (scFv8) 16P20 (scFv)
scFv: B1 scFv
B3: CD22-specific binder (scFv12) 16P17 (scFv)
scFv: B1 scFv with P14H, L109F, S149Y, F186S
B4: CD22-specific binder (scFv13) 16P20v2 (scFv)
scFv: B1 scFv with E104Q, H106D, L109F, F186S, Y230N
B5: CD22-specific binder (scFv16) 16P8 (scFv)
scFv: B1 scFv with N61T, S69N, H106Q, L109F, Q237R
B6: CD22-specific binder (scFv10) 16P6 (scFv)
scFv: B1 scFv with E104Q, H106D, L109F, V118I, F186S, E194G, Y230N
B7: CD22-specific binder (scFv15) 16P3v2 (scFv)
scFv: B1 scFv with P14H, T21A, E104Q, H106Q, S147F, T157I, F186S
B8: CD22-specific binder (scFv11) 16P10 (scFv)
scFv: B1 scFv with H106Q, L109F, Q237P
B9: CD22-specific binder (scFv7) 16P16 (scFv)
scFv: B1 scFv with S78F, Q140K
B10: CD22-specific binder (scFv17) 16P13 (scFv)
scFv: B1 scFv with D27N, H106Q, L109F, S202G
B11: CD22-specific binder (scFv14) 16P1 (scFv)
scFv: B1 scFv with A23D, V103I, L109F, G113D, D138V, F186S, T190S, E194G
B12: CD22-specific binder (scFv6) 16P3 (scFv)
scFv: B1 scFv with V2I, E104Q, H106D, F186S, Y230N
B13: CD22-specific binder (scFv9) 16P2 (scFv)
scFv: B1 scFv with S78F, Q140K
B14: CD22-specific binder (scFv1) 16P (scFv)
scFv: QVQLQQSGPGLVKPSQTLSLTCAISGDSVSSNSAAWNWIRQSPSRGLEWLGRTYYRSKWYNDYAVSVKSRITINPDTSKNQFSLQLNSVTPEDTAVYYCAQEVQPHDAFDIWGQGTMVTVSSGGGGSGGGGSGGGGSDIQMTQSPSSVSASVGDKVTITCRASQDVSGWLAWYQQKPGLAPQLLIFGASTLQGEVPSRFSGSGSGTDFTLTISSLQPEDFATYYCQQAKNFPYTFGQGTKLEIKR
notes: also called founder clone
B15: CD22-specific binder (scFv5) 12s (scFv)
scFv: QVQLQQSGPGLVKPSQTLSLTCAISGDSVSSNSAAWNWIRQSPSRGLEWLGRTYYRSKWYNDYAVSVKSRITINPDTSKNQFSLQLNSVTPEDTAVYYCAREGDDALDIWGQGTMVTVSSGGGGSGGGGSGGGGSDIQMTQSPSSLSASVGDRVTITCRASQSISHFLNWYQQKPGTAPKLLITTASGLGSGVPSRFSGSGSGTDFTLTINSLQPEDLATYYCQQSYTTPLTFGGGTKLEIKR
B16: CD22-specific binder (scFv3) 25P (scFv)
scFv: QVQLQQSGPGLVKPSQTLSLTCAISGDSVSSNSAAWNWIRQSPSRGLEWLGRTYYRSKWYNDYAVSVKSRITINPDTSKNQFSLQLNSLTPEDTAVYYCAREHQNEAAFDIWGQGTMVTVSSGGGGSGGGGSGGGGSQSVLTQPPSASGTPGQRVTISCSGGGSNIGTNTASWYQQLPGTAPKLLIYRNTQRPSGIPDRFSGSKSGTSASLAISGLQSEDEADYYCAAWDDSLNGYVFGAGTQLTVLG
notes: Lambda light chain

Key:
[1] = target: T1, recombinant human CD22 (labeled CD22 used in flow cytometry of yeast) (human, UniProt P20273 20-687, limits assumed, fluorescent label, not specified); assay: flow cytometry of yeast-displayed scFv with decreasing amounts of labeled CD22
T1 construct: also called fluorescently tagged antigen
Method: After electroporation, the resulting mutant library was then grown overnight at 30° C. for 16 hours in SDCAA medium and then switched into SGCAA medium at 30° C. for another 16 hours. The mutant library was then sorted through MACS (immunomagentic column, Miltenyi Biotec) with CD22-Fc as the capture antigen to downsize the library and to increase the population of mutants that could bind to CD22-Fc. The strongest binders were then selected by double staining the pools with Anti-c-Myc-Alexa 488 and […]/Anti-Hu-Fc and selecting for the binders that had the highest binding affinities as well as c-Myc expression levels. […] Binding affinities were estimated by flow cytometry of yeast pools using decreasing amounts of labeled CD22.

[2] = target: T2, CD22 expressed on cells (CHOK1-CD22, K562-CD22, Raji, Reh) (human, UniProt P20273 20-847); assay: yeast display cell panning on CHOK1 cells transfected with CD22
T2 construct: whole, on cells; also called SIGLEC-2; Leu14
Method: The same ScFv starting material as for phage display was also incorporated into a yeast ScFv display system. To supplement phage-based scFv analysis, yeast libraries expressing the human scFv library were also screened. To enrich the yeast expressing scFvs that bind to both the recombinant CD22-Fc and the […] expressed on the cell surface of the CHOK1 cells, cell panning on CHOK1 transfected with CD22 cells was performed. For the first round of panning on the cell surface, two days prior to panning, the CHOK1-CD22 cells were seeded into 6-well plates and grown to 50% confluency in F12 K medium. 5×10⁷ yeast cells were then washed 2× with PBSA buffer and resuspended into 3 mL F12 K medium, and then gently added dropwise to the CHOK1-CD22 cells. […] The cell mix containing both the yeast and CHOK1 cells were then inoculated into 10 mL SDCAA medium and amplified overnight at 30° C. and then induced in SGCAA medium at 30° C. for 16 hours. For the second round of cell panning, a similar protocol as above was performed, but more stringent wash conditions were used. […] Binder sequences were incorporated into CART constructs as described in Example 2, infra, in a series of in vitro CART functional assays.

Row | Binder | EC50 [1] | binding result [2]
1 | B1 | < 0.01 µg/mL | –
2 | B2 | < 0.01 µg/mL | –
3 | B3 | < 0.01 µg/mL | –
4 | B4 | < 0.01 µg/mL | –
5 | B5 | < 0.01 µg/mL | –
6 | B6 | < 0.01 µg/mL | –
7 | B7 | < 0.01 µg/mL | –
8 | B8 | < 0.01 µg/mL | –
9 | B9 | < 0.01 µg/mL | –
10 | B10 | < 0.01 µg/mL | –
11 | B11 | < 0.01 µg/mL | –
12 | B12 | < 0.01 µg/mL | –
13 | B13 | < 0.01 µg/mL | –
14 | B14 | 0.5 µg/mL | –
15 | B15 | – | binds
16 | B16 | – | binds
